Drawing on paper PMC4022432, “Complete steady-state rate equation for DNA ligase and its use for measuring product kinetic parameters of NAD^+-dependent DNA ligase from Haemophilus influenzae” (BMC Research Notes, 2014), this text covers Km for one protein.

Substrate in the series: NC(=O)c1ccc[n+]([C@@H]2O[C@H](COP(=O)(O)OP(=O)(O)OC[C@H]3O[C@@H](n4cnc5c(N)ncnc54)[C@H](O)[C@@H]3O)[C@@H](O)[C@H]2O)c1
As to the kind of experiment: purified protein. The note with it: co-substrate nicked DNA 10-80 nM; room temperature; value from NMN study.

Excerpt: FRET nick-ligation assay, global nonlinear least-squares fit of NMN product inhibition on NAD^+-dependent DNA ligase from Haemophilus influenzae

B1: NAD^+-dependent DNA ligase from Haemophilus influenzae (Haemophilus influenzae Rd KW20) (protein)
chain: MTNIQTQLDNLRKTLRQYEYEYHVLDNPSVPDSEYDRLFHQLKALELEHPEFLTSDSPTQRVGAKPLSGFSQIRHEIPMLSLDNAFSDAEFNAFVKRIEDRLILLPKPLTFCCEPKLDGLAVSILYVNGELTQAATRGDGTTGEDITANIRTIRNVPLQLLTDNPPARLEVRGEVFMPHAGFERLNKYALEHNEKTFANPRNAAAGSLRQLDPNITSKRPLVLNAYGIGIAEGVDLPTTHYARLQWLKSIGIPVNPEIRLCNGADEVLGFYRDIQNKRSSLGYDIDGTVLKINDIALQNELGFISKAPRWAIAYKFPAQEELTLLNDVEFQVGRTGAITPVAKLEPVFVAGVTVSNATLHNGDEIERLNIAIGDTVVIRRAGDVIPQIIGVLHERRPDNAKPIIFPTNCPVCDSQIIRIEGEAVARCTGGLFCAAQRKEALKHFVSRKAMDIDGVGGKLIEQLVDRELIHTPADLFKLDLTTLTRLERMGAKSAENALNSLENAKSTTLARFIFALGIREVGEATALNLANHFKTLDALKDANLEELQQVPDVGEVVANRIFIFWREAHNVAVVEDLIAQGVHWETVEVKEASENLFKDKTVVLTGTLTQMGRNEAKALLQQLGAKVSGSVSSKTDFVIAGDAAGSKLAKAQELNITVLTEEEFLAQITR
The Km is the concentration of substrate that gives half-maximal velocity. Consider B1, for which the Km came to 0.65 ± 0.08 µM.
